This note sets out measurements from PMC8297500.

Several values for one entry are separate records, joined by “and”; a condition that tells them apart may be missing. Identical values can stand only once.

Assay [1] addresses Theileria parva schizont antigen Tp2, bacterially expressed recombinant protein with His-tag (Theileria parva (Muguga)). As to the kind of experiment: SEC-MALS; apparent dimer fraction from preparative SEC; FPLC (Shimadzu) with Wyatt scattering and refractive index detectors. On the technique in general: Size exclusion chromatography separates by hydrodynamic size, large species first.

Assay [2] has the same target. As to the kind of experiment: SEC; preparative SEC (Generon ProteoSEC 3-70 kD) after affinity chromatography; 20 mM PO4, 250 mM NaCl, 0.02% NaN3, pH 7.5; apparent masses from elution times.

As to “Theileria parva schizont antigen Tp2, bacterially expressed recombinant protein with His-tag (natural protein)”, the stoichiometry N is 2 in assay [1]; 4 and 2 in assay [2].

A word on the stoichiometry N: it is the number of molecules, sites or subunits per partner or assembly.
